Results as given in the nanobody polyreactivity screen of Harvey et al. (2022).

Assay: yeast display, Sf9 membrane polyspecificity reagent, FACS + sequencing; frameworks hold sequencing errors
Summary of the method: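 Galactose-induced (36–48 hours) yeast carrying a synthetic nanobody display library were exposed to 10% biotinylated, detergent-solubilized Sf9 membrane reagent at 4 °C for 1 hour. FACS followed streptavidin microbead enrichment, using low and high (top ~1%) gates for expression (anti-HA) and reagent binding (streptavidin). Colony PCR, MiSeq 2 × 250 sequencing and CDR-length filtering followed. Labels for polyreactivity reflect the gate of origin.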

Row | Sequence | polyreactivity (PSR sort gate)
1 | QVQLVESGGGLVQAGGSLRLSCAASGITFGSYAMGWYRQAPGKERELVAAISRSGGSTYYADSVKGRFTISRDNEKNTVYLQMNSLKPEDTAVYYCAVRYVYYREGDYWGQGTQVTVSS | high polyreactivity
2 | QVQLVESGGGLVQAGGSLRLSCAASGSIFWYYAMGWSRQAPGKERELVAAITGSGGSTYYADSVKGRFTISRDNAKTTVYLQLNSLKPEDTAVYYCAAEAFFWYYGWYDYWGQGTQVTVSS | high polyreactivity
3 | QVQLVESGGGFVQAGGSLRLSCAACGITFNPNAMGWYRQAPGKERELVAAITANGGNTYYADSVKGRFTISRDNAKNTVYLQMNSLKPEDTAVYYCARRTRRSAGYGEYYYWGQGTQVTVSS | high polyreactivity
4 | QVQLVESGGGLVQAGGSLRLICYASGSIFWVYAMGWYRQAPGKEWELVADIRYRDGSTHYADSVKGRFTISRDNAKNTVYLQMNSLKPEDTAVYYCAADDLPSTGYDYWGPGTQVTVSS | low polyreactivity
5 | QVQLVESGGRLVQAGGSHRLSCAASGRTFNVYAMGWYRQAPGKERELVASISSSDTTNYADSVKGRFTISRDNAKNTVYLQMNSLKPEDTAVYYCAADYTPDLLSKVDYCGQGTQVTVSS | low polyreactivity
6 | QVQLVESGGGLVQAGGSLRLSCAASGRNFEQYAMGWYRQAPGKERELVAAISGSGGSTFYADSVKGRFTISRDNAKNTVYVQMNRLKPEDTAVYYCNAPGDGYLYDHTYDYWGQGTQVTVSS | low polyreactivity
7 | QVKLVESGGGLVQAGGSLRLSFAASGYTFGSNAMGWYRQAPGKERELVADIDCSSGNTYYADSVKGRFTISRDNAKNTVYLQMNSLKPEDTAVYYCAAELHIYYSWYWYDYWGQGTQVTVSS | high polyreactivity
8 | QVQLEDSGGGLVQAGGSLRLSCAASGIIFYSYAMGWYRQAPVKERELVATISFSGDNTYYADSVKGRFTISRDNAKNTVYLQMNSLKPEDTAVYYCAAASTYGGYYYSVSFEYWGQGTQVTVSS | low polyreactivity
9 | QVQLVESGGGLVQAGGSLRLSCAASGIIFVENPMGWYRQAPGKERELVATITSGDTTNYADSVKGRFTISRDNAKNTVYLHMNSLKAEDTAVYYCAAERYEDFTEYDYWGQGTQVTVSS | low polyreactivity
10 | QVQLVESGGGLVQAGGSLRLSCAASGRTFGSYAMGWYRQAPGKERELVAAINWSGSSTYYADSVKGRFTISRDNAKNTVYLQMNSLKPEDTAVYYCAATPSFYRSYQGMDYWGQGTQVTVSS | high polyreactivity
11 | QVQLVESGGGLVQAGGSLRLSCAASGYIFAGNAMGWYRQAPGKERELVAVITRGGRTYYADSVKGRFTISRDNAKNTVYLQMNSLKPEDTAVYYCAKLVSLAGRIYGYWGQGTQVTVSS | high polyreactivity
12 | QVQLVESGGGLVQAGGSLRLSCAASGSIFYSNTIGWYRQAPRKERELDAAITSGGGTNYADSVKGRFTISRDNAKNTVYLQMNSLKPEDTAVYYCAAVTKTLYRSYFLMYYWGQGTQVTVSS | high polyreactivity
13 | QVQLVESGGGLVQAGGSLRLSCAASGSTFYRNTMGWYRQAPGKERELVAAIRRSGSSTYYADSVKGRFTISRDIAKNTVYLQMNSLKREDTAVYYCAKEGLSYRYYYWGQGTQVTVSS | high polyreactivity
14 | QVQLQESGGGLVQAGGSLRLSCAASGYIFPRIYMGWYRQAPGKEREFDAGISYDAITNYADSVKGRFTISLDNAKNTVYLQMNSLNPEYTAVYYCAVSYYGTPLVTYWGQGTQVTVSS | high polyreactivity
15 | QVQLVESGGGLVQAGGSLRLSCAASGYIFPYNAMGWYRQAPGKERELVATITWTGGSTYYADSVKGRFTISRDNAKNSVYLQMNSLKPEDTAVYYCAADLSIRYDHEYGYWGKGTQVTVSS | low polyreactivity
16 | QDQHVESGGGLVQAGGSLRLSCAASGRTFAGYAMGWYRQAPGKERELVATISGRGGSTSYADSVKGRFTISRDNAKNTVYLQMNSLIPEDTAVYYCAKASWYKYKYDYWGQGTQVTVSS | high polyreactivity

Row | Sequence | polyreactivity (PSR sort gate)
17 | QVQLVESGGGVVQAGGSLRLSCAASGFILRAYAMGWYRQAPGKERELVAAITSATSTNYADSVKGRFTISRDNAKNTVYLQMNSLKPEDTAVYYCAADGGGGEFSYDSWGQGTQVTVSS | low polyreactivity
18 | QVHLVESGGGLVQAGGSLRLSCAASGSTFYYYVMGWYRQAPGKERELVAAINISGGNTYYADSVKGRFTISRDNAKNTVYLKKNSLIPEDTAVYYCAADYRSSRTTEYYYWGQGTQVTVSS | low polyreactivity
19 | QVQLVESGGGLVQAGGSLRLSCAASGRTFYHYAMGWYRQAPGKERELVAAITGSGGSTSYADSVKGRFTISRDNAKNTVYLQMNTLKPEDTAVYYCAAVQFPTPLLLYDSWGQGTQVTVSS | low polyreactivity
20 | QVQLVESGGGLVQPGGSLRLSCAASGSTFIEYSMGWYRQAPGKERELVATIRGTGSTNYADSVKGRFTISRDNAKNTVYLQMNSLKPEDTAVYYCMKKPDPRWYYWGDYWGQGTQVTVSS | low polyreactivity
21 | QVQLEESGGGLVQAGGSLRLTCAASGRTFDFYAMGWYRQAPGKEREFVAAITFSTGSTTYADSVKGRFTISRDNAKNTVYLQMNSLKPEDTAVYYCNADAFNKISYVWYDYWGQGTQVTVSS | low polyreactivity
22 | QVKLEESGGGLVQAGGSISLSCAASGSIFFWYTMGCYRQAPGKERELVATITGSGSSTTYADSVKGRFTISRDNAKNTVYLQMNSLKPEDTAVYYCAAADIIDHSFTYDYWGQGTQVTVSS | low polyreactivity
23 | QVQLVESGGGLVQAGGILRLSCAASGSTFYYNTMGWYRQAPGKERELVAAISWSGGSTYYADSVKGRFTISRDNAKTTVYLQINSLKPEDTAVYYSNKLRHISRTLYGYWGQGTQVTVSS | high polyreactivity
24 | QVQLVESGGGLVQAGGSLRISSAASGFNSPSYAMGWYRQAPGKERELVAAISSGDSTNYADSVKGRFTISRDNAKNTVYLLMNSLKPEDTAVYYCAARYREQYDYWGQGTQVTVSS | low polyreactivity
25 | QGQLVESGGGLVQAGGSLRLSCAASGFTFQYYAMGWYRQAPGKDRELVAALSSSGGRTFYADSVKGRFTISRDNAKNTVYLQMNSLKAEDTAVYYCAAVWYGFLYYYWGQGTQVTVSS | high polyreactivity
26 | QVQLVESGGGLVQAGGSLRLSCAASGITFGYYAMGWYRQAPGKERENVAAITRRGGSTYYADSVKGRFTISRDNAKNTVYLQMNSLKPEDTAVYYCAADSYRYWFIEDNYWGQGTQVTVSS | high polyreactivity
27 | QVQLVESGGGLVQAGGSLRLSCAASGIIFGNYAMGWYRQAPGKERELVAAITNGSSTNYADSVKGRFTISRDNAKNTVYLQMNSLKPEDTAVYYCARDGIGADGYDYWGQGTQVTVSS | low polyreactivity
28 | QVQLVESVGGLVQAGGSLRLTCAACGVTFSYNTMGWYRQAPGKERELVAAISRSGGRTYYADSVKGRFTISRDNAKNTVYLQMNSLKPEDTAVYYCARYSVTGFGANSGPEMDYWGHGTQVTVSS | high polyreactivity
29 | QVQLVESGGGLVQAGGSLRLSCAASGSSFWYNAMGWYRQAPGKERELVATISSRGDGTYYADSVKGRFTISRDNAKNTVYLQMNSLKPEDTAVYYCNKYRQQGWEFDYWGQGTQVTVSS | high polyreactivity
30 | QVQLVESGGGLVQAGGSLRLSCAASGRIFRSNAMGWYRQAPGKERELVAAINNRDTSTYADSVKGRFTISRDNAKNTVYLQMNSLKPEDTAVYYCAARYQYYSTYGVTLDYWGQGTQVTVSS | low polyreactivity
31 | QVQLVESGGGLVQAGGSLRLSCAASGIILHYYAMGWYRQAPGKQRELVAAISARGGRTYYADSVKGRFTISRDNAKNTVYLQMNSLKPEDTAVYYCAAVTVASPTRMDYWGQGTLVTVSS | high polyreactivity
32 | QVQLVESGGGLVQAGGSLRLSCPASGSIFFYAMGWYRQAPGKERELVADITYTGGSKYADSVKGRFTISRDNAKNTVYLQMNSLKPEDTAFYYCANLDGGLFDYWGQGTQVTVSS | low polyreactivity
